# B1: EsxV (natural protein)
# chain: MTINYQFGDVDAHGAMIRAQAGSLEAEHQAIISDVLTASDFWGGAGSAACQGFITQLGRNFQVIYEQANAHGQKVQAAGNNMAQTDSAVGSSWA
# Target: T1, EsxW wildtype (2Thr) (Mycobacterium tuberculosis H37Rv, UniProt P9WNI3 1-98)
# T1 sequence: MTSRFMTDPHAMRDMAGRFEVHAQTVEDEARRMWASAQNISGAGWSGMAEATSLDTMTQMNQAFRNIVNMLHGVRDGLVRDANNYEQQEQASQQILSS
# Assay: MST
binder,measurement,value
B1,Kd,600 nM

# — paper PMC6143168 (Nature genetics, 2018)
